From patent publication US20060264369, “Aptamers to von Willebrand Factor and their use as thrombotic disease therapeutics” (published 2006)

Experiments:
[1] = target: T1, von Willebrand factor full length (Homo sapiens, UniProt P04275 SEQ:764-2813); experiment: filter; 17% bound at 100 nM vWF; conditions: tags: Calbiochem 681300; label: 5'-32P
Protocol: (§1) For KD determination, chemically synthesized aptamers were purified using denaturing polyacrylamide gel electrophoresis, 5′end labeled with γ-³²P ATP and were tested for direct binding to full length human vWF (Calbiochem Cat.# 681300, La Jolla, Calif.). An 8 point protein titration was used in the dot blot binding assay (100 nM, 30 nM, 10 nM, 3 nM, 1 nM, 300 pM, 100 pM, 0 pM)) in 1× Dulbecco's PBS containing […] (final volume of 50 uL) for 30 minutes at room temperature. KD values were calculated by fitting the equation y=(max/(1+K/protein))+yint using KaleidaGraph (KaleidaGraph v. 3.51, Synergy Software).

[2] = target: T1, von Willebrand factor full length; experiment: filter; 29% bound at 100 nM vWF; conditions: tags: Calbiochem 681300; label: 5'-32P
Protocol: as §1

[3] = target: T1, von Willebrand factor full length; experiment: filter; 51% bound at 100 nM vWF; conditions: tags: Calbiochem 681300; label: 5'-32P
Protocol: as §1

[4] = target: T1, von Willebrand factor full length; experiment: filter; 38.5% bound at 100 nM vWF; conditions: tags: Calbiochem 681300; label: 5'-32P
Protocol: as §1

[5] = target: T1, von Willebrand factor full length; experiment: filter; 38.2% bound at 100 nM vWF; conditions: tags: Calbiochem 681300; label: 5'-32P
Protocol: as §1

[6] = target: T1, von Willebrand factor full length; experiment: filter; 26.5% bound at 100 nM vWF; conditions: tags: Calbiochem 681300; label: 5'-32P
Protocol: as §1

[7] = target: T1, von Willebrand factor full length; experiment: filter; 29.0% bound at 100 nM vWF; conditions: tags: Calbiochem 681300; label: 5'-32P
Protocol: as §1

[8] = target: T1, von Willebrand factor full length; experiment: filter; 22.6% bound at 100 nM vWF; conditions: tags: Calbiochem 681300; label: 5'-32P
Protocol: as §1

[9] = target: T1, von Willebrand factor full length; experiment: filter; 19.2% bound at 100 nM vWF; conditions: tags: Calbiochem 681300; label: 5'-32P
Protocol: as §1

[10] = target: T1, von Willebrand factor full length; experiment: filter; 55% bound at 100 nM; conditions: tags: Calbiochem 681300
Protocol: as §1

[11] = target: T1, von Willebrand factor full length; experiment: filter; 44% bound at 100 nM; conditions: tags: Calbiochem 681300
Protocol: as §1

[12] = target: T1, von Willebrand factor full length; experiment: filter; 47% bound at 100 nM; conditions: tags: Calbiochem 681300
Protocol: as §1

[13] = target: T1, von Willebrand factor full length; experiment: filter; 33% bound at 100 nM; conditions: tags: Calbiochem 681300
Protocol: as §1

[14] = target: T1, von Willebrand factor full length; experiment: flow; range 1.3-370 nM; conditions: tags: Calbiochem 681300
Protocol: Aptamer potency to block human vWF binding to lyophilized platelets was assessed by flow cytometric analysis. Titrations of aptamers (0 nM, 0.1 nM to 1000 nM) were pre-incubated briefly with 5 nM of full length human vWF in FACS buffer (PBS plus 0.5% bovine serum albumin) at room temperature in a volume of 50 uL. Another 50 uL containing 5 uL of lyophilized platelets plus 1 uL of 0.1 U/uL of botrocetin in FACS buffer was added to aptamer/vWF. This reaction was allowed to proceed for 15 minutes at 37 degrees C. after which 200 uL of FACS buffer was added. […] The pellets were resuspended in 100 uL of FACS buffer containing a 1:100 dilution of anti-vWF antibody and were incubated at room temperature for 30 minutes. […] The pellets were resuspended in a 1:100 solution of anti-IgG2a-FITC antibody and were incubated in the dark for 30 minutes at room temperature. The entire 100 uL was diluted into 200 uL of FACS buffer and analyzed immediately by flow cytometric analysis in the FACSCAN. […] Mean fluorescent intensity (“MFI”) readings were quantified for each sample analyzed by flow cytometry. […] IC₅₀ values were determined by fitting the percent inhibition of vWF binding to platelets as a function of aptamer concentration to the equation: % inhibition=% inhibitionₘₐₓ/(1+IC₅₀/aptamer conc.)

[15] = target: T1, von Willebrand factor full length; experiment: filter; 51% bound at 100 nM; conditions: tags: Calbiochem 681300
Protocol: as §1

[16] = target: T1, von Willebrand factor full length; experiment: filter; 42% bound at 100 nM; conditions: tags: Calbiochem 681300
Protocol: as §1

[17] = target: T1, von Willebrand factor full length; experiment: filter; 32% bound at 100 nM; conditions: tags: Calbiochem 681300
Protocol: as §1

[18] = target: von Willebrand factor A1 domain (human) (Homo sapiens, UniProt P04275 SEQ:13-246); experiment: filter; 100 nM protein
Description: When a significant positive ratio of binding of RNA in the presence of human or rabbit vWF A1 domain (SEQ ID NOS […] and 6, respectively) versus in the absence of protein was seen, the pools were cloned using the TOPO TA cloning kit (Invitrogen Cat.# 45-0641, Carlsbad, Calif.) according to the manufacturer's instructions. Round 9 and 12 pool templates were cloned and sequenced (185 total sequences), producing 78 unique clones within 3 sequence families. All unique clones were transcribed, desalted, 5-³²P end-labeled, and assayed in a 3-point dot blot screen (no protein target control, 100 nM human vWF A1 domain (SEQ ID NO 5), or 100 nM rabbit vWF A1 domain (SEQ ID NO 6). The data are presented in the third and fourth columns of Table 9 below as the ratio of the fraction of the aptamer bound to the nitrocellulose in the presence of the target protein to the fraction of aptamer bound in the absence of the target protein. Of the three sequence families, members of Family #1 and # 2 and two individual, non-family aptamers, bound to both human vWF domain A1 (SEQ ID NO 5) and rabbit vWF domain A1 (SEQ ID NO 6).

[19] = target: T1, von Willebrand factor full length; experiment: filter; 54% bound at 100 nM; conditions: tags: Calbiochem 681300
Protocol: as §1

Which Kd [1] does the source give for GGCGUGCAGUGCCUUCGGCCGTGCGGTGCCUCCGUCACGCC (mixed, 2'-OMe/deoxy composite with multiple PS as printed in Table 22, 3'-idT) [ARC1344] here?
Its Kd is 4.8 nM.

B1: ARC1345 (mixed)
mixed: GGCGUGCAGUGCCUUCGGCCGTGCGGTGCCUCCGUCACGCC
modifications: 2'-OMe/deoxy composite with PS 5' of the deoxy residues as printed in Table 22, 3'-idT
Which Kd [2] does the source give for B1 here?
The Kd was 12.1 nM.

GCGUGCAGUGCCUUCGGCCGTGCGGTGCCUCCGUCACGC (mixed, 2'-OMe/deoxy composite, 3'-idT) [ARC1346] was tested. Which Kd [3] did it give?
The Kd was 11 nM.

GCGUGCAGUGCCUUCGGCCGTGCGGTGCCUCCGUCACGC (mixed, 2'-OMe/deoxy composite, 3'-idT) [ARC1361] was tested. Which Kd [4] did it give?
Its Kd is 7.9 nM.

With GCGUGCAGUGCCUUCGGCCGTGCGGTGCCUCCGUCACGC (mixed, 2'-OMe/deoxy composite, single PS between mG20 and dT21, 3'-idT) [ARC1368] as the binder, how does the Kd [5] read?
The Kd was 1.8 nM.

GCGUGCAGUGCCUUCGGCCGTGCGGTGCCUCCGUCACGC (mixed, 2'-OMe/deoxy composite, single PS between mG20 and dT21, 3'-idT) [ARC1524] was tested. Which Kd [6] did it give?
The Kd was 5.7 nM.

For GCGUGCAGUGCCUUUGGCCGTGCGGTGCCUCCGUCACGC (mixed, 2'-OMe/deoxy composite, single PS, 3'-idT) [ARC1526], which Kd [7] is on record?
The Kd was 47 nM.

CGUGCAGUGCCUUCGGCCGTGCGGTGCCUCCGUCACG (mixed, 2'-OMe/deoxy composite, single PS, 3'-idT) [ARC1529] was tested. Which Kd [8] did it give?
The Kd was 12.3 nM.

With CGUGCAGUGCCUUUGGCCGTGCGGTGCCUCCGUCACG (mixed, 2'-OMe/deoxy composite, single PS, 3'-idT) [ARC1530] as the binder, how does the Kd [9] read?
The Kd was 15 nM.

GGCGTGCAGTGCCTTCGGCCGTGCGGTGCCTCCGTCACGCC (ssDNA, 2'-OMe at 2; 3'-idT) [ARC1195] was tested. Which Kd [10] did it give?
The Kd was 1 nM.

How did the Kd [11] turn out when GGCGTGCAGTGCCTTCGGCCGTGCGGTGCCTCCGTCACGCC (ssDNA, 2'-OMe at 16; 3'-idT) [ARC1209] was run?
The Kd was 2 nM.

With GGCGTGCAGTGCCTTCGGCCGTGCGGTGCCTCCGTCACGCC (ssDNA, 2'-OMe at 18; 3'-idT) [ARC1211] as the binder, how does the Kd [12] read?
The Kd was 2 nM.

For GGCGTGCAGTGCCTTCGGCCGTGCGGTGCCTCCGTCACGCC (ssDNA, 2'-OMe at 26; 3'-idT) [ARC1219], which Kd [13] is on record?
Its Kd is 3 nM.

Which IC50 [14] does the source give for GGAGCCACACGACATTGGCGCGAGAGCGCATGGCTCC (mixed, ribo purines, deoxy pyrimidines) [rRdY minimer SEQ 201] here?
The IC50 was 150 nM.

GGCGTGCAGTGCCTTCGGCCGTGCGGTGCCTCCGTCACGCC (ssDNA, 2'-OMe at 39; 3'-idT) [ARC1232] was tested. Which Kd [15] did it give?
Its Kd is 1 nM.

GGCGTGCAGTGCCTTCGGCCGTGCGGTGCCTCCGTCACGCC (ssDNA, 2'-OMe at 41; 3'-idT) [ARC1234] was tested. Which Kd [16] did it give?
The Kd was 2 nM.

GGCGUGCAGTGCCTTCGGCCGTGCGGTGCCTCCGTCACGCC (ssDNA, 2'-OMe at 3,5,36,38,40,41; 3'-idT) [ARC1236] was tested. Which Kd [17] did it give?
The Kd was 3 nM.

B2: AMX203.F9 (mixed)
DNA: GGAGCGCACTCAGCCACTGAAGGGTAAGGACGAGGAGGGTATACAGTGTGCGCGTGTATTTCGACCTCTCTGCTAGC
modifications: ribo purines, deoxy pyrimidines
With B2 as the binder, how does the binding signal [18] read?
The binding signal was 1.45 ratio to no protein.

With GGCGTGCAGTGCCUTCGGCCGTGCGGTGCCTCCGTCACGCC (ssDNA, 2'-OMe at 14 (mU); 3'-idT) [ARC1207] as the binder, how does the Kd [19] read?
Its Kd is 2 nM.
